Data published in patent US6303339A, “DNA segments encoding autoimmune polypeptide epitopes of Ro/ss-A antigen” (Board of Regents, The University of Texas System, priority 1991, dated 2001).

B1: ribonuclease A (protein, UniProt P61823 27-150, looked up)
Ribonuclease pancreatic: KETAAAKFERQHMDSSTSAASSSNYCNQMMKSRNLTKDRCKPVNTFVHESLADVQAVCSQKNVACKNGQTNCYQSYSTMSITDCRETGSSKYPNCAYKTTQANKHIIVACEGNPYVPVHFDASV
notes: control polypeptide in ELISA

Key:
[1] = cited from earlier work
[2] = system: anti-Ro/SS-A antibodies (human autoimmune serum); test: ELISA, immobilized peptide reacted with human autoimmune anti-Ro/SS-A serum; assay type: binding
Excerpt: Human antisera. Anti-Ro/SS-A sera were selected by the presence of a single precipitin line in Ouchterlony analysis having complete identify with prototypic sera used in studies of Lieu et al. (17). The absence of antibodies to other nuclear antigens such as La/SS-B, U1 -RNP and Sm was also confirmed by ELISA. Monospecific anti-Sm and anti-La/SS-B human autoimmune sera were originally obtained from the laboratory of Dr. E. M. Tan (Scripps Research Institute, La Jolla, Calif.).
The native Ro/SS-A antigen (5 ug/ml) or synthetic peptide (10 ug/ml) in PBS was added to wells of a microtiter plate and incubated 16 hours at 4° C. The plates were washed with PBS-Tween and the remaining sites were coated with 1% BSA for 1 hour. After washing 3 times with PBS-Tween, sera diluted with 1% BSA, 0.5% bovine gamma globulin (BGG) in PBS-Tween were added and incubated for 2 hours. The plates were then washed 3 times with PBS-Tween. Peroxidase conjugated goat-anti-human IgG diluted 1:3000 in PBS-Tween containing 1% BSA and 0.5% BGG was added and incubated for 2 hours at room temperature. The plates were washed in a similar manner. […] The optical density was measured using a Titertek Multiskan brand ELISA plate reader.

Molecule | isoelectric point measured from the native purified protein [1] | binding to anti-Ro/SS-A serum in ELISA (in words) [2]
native purified protein: native 60 kD Ro protein purified from the human Wil-2 cell line | 4.67 | –
B1 | – | did not react
